# Results taken from paper PMC3176823, “A Membrane-Bound Vertebrate Globin” (PLoS ONE, 2011).
# B1: N- and C-terminally truncated Danio rerio globin X (GbXΔNC) (domain or fragment, Danio rerio (zebrafish), UniProt A0AC58HMV5 25-184, looked up)
# chain: PAGLTANHIRLIKESWRLIQEDIAKVGIIMFVRLFETHPECKDVFFLFRDVEDLERLRTSRELRAHGLRVMSFIEKSVARLDQLERLETLALELGKSHYRYNAPPKYYGYVGAEFICAVRPILKDRWTPELEEAWKTLFQYVTSIMREGFLEEERNKRSN
# notes: globin X (GbX) of zebrafish (Danio rerio), amino acids 25 to 184 (the globin core), cloned into pET3a; Heme protein; No tag is mentioned for the pET3a construct; also called recombinant truncated GbX; source: E. coli BL21(DE3)pLysS, purified (ammonium sulfate precipitation, ion-exchange, size exclusion chromatography)
# Target: the molecule itself
# Test: SDS-PAGE + MALDI-TOF; purified GbXΔNC heat-denatured in SDS sample buffer (2.5% β-mercaptoethanol), 15% SDS-PAGE; also 10–15% gradient gels (PhastSystem) in the absence and presence of DTT; bands identified by MALDI-TOF after tryptic digest
protein,measurement,value
B1,stoichiometry N,2
